Results from patent US8697369B2, “Method for screening a test substance for activating a receptor associated with FGF 21 activity” (National Institute of Advanced Industrial Science and …, priority 2007, dated 2014).

T1: betaKlotho (Mus musculus, UniProt Q99N32)
T1 construct: a V5 tag and a His tag were added to the C-terminus of the extracellular domain of betaKlotho; made in house
T1 sequence (Q99N32 1-992): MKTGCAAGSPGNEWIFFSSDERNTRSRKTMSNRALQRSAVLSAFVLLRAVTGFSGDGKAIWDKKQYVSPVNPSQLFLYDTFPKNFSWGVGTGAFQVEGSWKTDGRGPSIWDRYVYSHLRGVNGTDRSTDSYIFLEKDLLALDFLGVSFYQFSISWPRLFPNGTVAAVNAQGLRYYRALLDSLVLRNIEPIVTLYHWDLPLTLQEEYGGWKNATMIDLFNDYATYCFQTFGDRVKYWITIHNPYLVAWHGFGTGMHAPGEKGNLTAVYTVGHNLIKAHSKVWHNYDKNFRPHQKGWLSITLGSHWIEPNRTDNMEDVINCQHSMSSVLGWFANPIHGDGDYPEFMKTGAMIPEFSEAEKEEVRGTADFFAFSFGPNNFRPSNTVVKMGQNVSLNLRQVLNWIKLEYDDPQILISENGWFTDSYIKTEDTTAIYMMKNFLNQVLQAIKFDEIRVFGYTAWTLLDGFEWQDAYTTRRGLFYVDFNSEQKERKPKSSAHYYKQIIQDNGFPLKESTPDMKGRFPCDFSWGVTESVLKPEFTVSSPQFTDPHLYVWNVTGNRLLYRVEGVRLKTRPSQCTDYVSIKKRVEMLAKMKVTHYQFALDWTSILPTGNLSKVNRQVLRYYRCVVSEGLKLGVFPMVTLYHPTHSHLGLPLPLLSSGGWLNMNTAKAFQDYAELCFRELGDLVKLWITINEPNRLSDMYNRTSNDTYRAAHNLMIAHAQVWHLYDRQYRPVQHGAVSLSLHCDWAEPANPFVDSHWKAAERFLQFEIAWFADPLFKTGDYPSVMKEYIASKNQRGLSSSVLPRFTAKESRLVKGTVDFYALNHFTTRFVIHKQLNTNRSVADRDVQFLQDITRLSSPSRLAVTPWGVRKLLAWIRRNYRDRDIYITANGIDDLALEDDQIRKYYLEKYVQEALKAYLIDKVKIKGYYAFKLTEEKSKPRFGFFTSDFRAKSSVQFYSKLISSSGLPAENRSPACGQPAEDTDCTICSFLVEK

B1: FGF21: fibroblast growth factor 21; mouse-derived protein used in Examples 1-7 and 10-13 (protein)
chain: AYPIPDSSPLLQFGGQVRQRYLYTDDDQDTEAHLEIREDGTVVGAAHRSPESLLELKALKPGVIQILGVKASRFLCQQPDGALYGSPHFDPEACSFRELLLEDGYNVYQSEAHGLPLRLPQKDSPNQDATSWGPVRFLPMPGLLHEPQDQAGFLPPEPPDVGSSDPLSMVEPLQGRSPSYAS

What was measured:
[1] = test system: betaKlotho/FGFR-expressing cells (FGFR1b, R1c, R2b, R2c, R3b, R3c, R4); experiment: Thymidine incorporation in betaKlotho/FGFR-expressing BaF3 cells with or without heparin; format: cell-based, mouse; conditions: presence versus absence of heparin
Experimental: An expression vector of such FGF receptor (FGFR1b, R1c, R2b, F2c, R3b, R3c, and R4) was introduced into BaF3 cells expressing betaKlotho, and each type of betaKlotho/FGFR-expressing cells were stimulated with FGF21 and FGF1 in the presence or absence of heparin, so that the ability of the cells to incorporate thymidine therein was measured. As a result, it was shown that both FGFR1c- and FGFR3c-expressing cells react with FGF21.
(§1) Whether other receptor molecules can also act as such FGF receptors was examined. An expression vector containing each FGFR (FGFR1b, R1c, R2b, R2c, R3b, R3c, and R4) (described in Ornitz, D. M., Xu, J., Colvin, J. S., McEwen, D. G., MacArthur, C. A., Coulier, F., Gao, G. and Goldfarb, M. (1996) Receptor specificity of the fibroblast growth factor family. J Biol Chem, 271, 15292-15297.) was introduced into betaKlotho-expressing BaF3 cells, so as to obtain clones that were resistant to Puromycin and G418, thereby obtaining FGFR/betaKlotho-expressing cells. Such cells were stimulated with FGF21, and the amount of DNA synthesized was measured.

[2] = test system: FGFR4/betaKlotho-expressing BaF3 cells; experiment: DNA synthesis (thymidine incorporation) in FGFR4/betaKlotho-expressing BaF3 cells; format: cell-based, mouse; conditions: BaF3 cells expressing FGFR4 and betaKlotho; presence of heparin
Chain of FGFR4/betaKlotho-expressing BaF3 cells (Q03142 17-366 limits assumed): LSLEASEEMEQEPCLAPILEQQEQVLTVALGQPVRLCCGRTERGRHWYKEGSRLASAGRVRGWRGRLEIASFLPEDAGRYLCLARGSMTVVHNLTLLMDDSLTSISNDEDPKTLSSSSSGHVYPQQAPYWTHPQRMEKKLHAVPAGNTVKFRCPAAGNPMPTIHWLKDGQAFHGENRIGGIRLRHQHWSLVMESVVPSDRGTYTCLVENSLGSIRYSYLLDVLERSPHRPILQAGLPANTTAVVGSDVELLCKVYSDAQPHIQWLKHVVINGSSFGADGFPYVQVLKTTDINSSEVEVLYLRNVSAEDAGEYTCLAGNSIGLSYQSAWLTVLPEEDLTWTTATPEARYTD
Chain of FGFR4/betaKlotho-expressing BaF3 cells (Q99N32 whole entry, further chain): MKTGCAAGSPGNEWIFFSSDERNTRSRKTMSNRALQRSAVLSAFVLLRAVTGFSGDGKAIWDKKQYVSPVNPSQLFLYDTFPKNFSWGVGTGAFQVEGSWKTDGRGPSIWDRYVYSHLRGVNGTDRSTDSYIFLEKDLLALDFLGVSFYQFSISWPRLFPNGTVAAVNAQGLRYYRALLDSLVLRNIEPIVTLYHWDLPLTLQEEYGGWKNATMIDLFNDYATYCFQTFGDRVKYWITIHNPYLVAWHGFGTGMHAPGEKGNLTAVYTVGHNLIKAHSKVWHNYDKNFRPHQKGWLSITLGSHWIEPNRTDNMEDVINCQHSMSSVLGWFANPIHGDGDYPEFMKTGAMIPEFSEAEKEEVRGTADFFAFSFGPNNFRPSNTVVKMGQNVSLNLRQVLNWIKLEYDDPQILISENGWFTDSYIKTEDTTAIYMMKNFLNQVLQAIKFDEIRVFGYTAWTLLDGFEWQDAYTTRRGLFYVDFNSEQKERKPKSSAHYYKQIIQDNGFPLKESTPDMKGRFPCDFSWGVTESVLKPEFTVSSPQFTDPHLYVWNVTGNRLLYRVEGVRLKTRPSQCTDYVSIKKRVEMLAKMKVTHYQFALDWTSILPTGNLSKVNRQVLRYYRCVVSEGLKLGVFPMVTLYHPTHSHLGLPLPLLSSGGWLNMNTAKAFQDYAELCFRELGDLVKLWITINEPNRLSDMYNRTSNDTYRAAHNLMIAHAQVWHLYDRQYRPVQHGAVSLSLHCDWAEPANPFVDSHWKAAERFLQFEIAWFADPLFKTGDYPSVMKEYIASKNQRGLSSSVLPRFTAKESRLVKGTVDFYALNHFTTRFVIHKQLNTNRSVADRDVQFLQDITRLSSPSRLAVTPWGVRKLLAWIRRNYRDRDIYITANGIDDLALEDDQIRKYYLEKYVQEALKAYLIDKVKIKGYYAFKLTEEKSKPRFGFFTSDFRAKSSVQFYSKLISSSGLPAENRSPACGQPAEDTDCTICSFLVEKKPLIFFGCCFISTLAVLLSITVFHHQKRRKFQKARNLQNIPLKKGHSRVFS
Experimental: A commonly used measurement method is a cell growth stimulating activity measurement method described in Ornitz, D. M., Xu, J., Colvin, J. S., McEwen, D. G., MacArthur, C. A., Coulier, F., Gao, G. and Goldfarb, M. (1996) Receptor specificity of the fibroblast growth factor family. J Biol Chem, 271, 15292-15297. The summary thereof is as follows. FGF used as a measurement target is added to a culture solution containing a cultured cell having an FGF receptor on the surface thereof, and the obtained mixture is cultured for a certain period of time. Thereafter, a labeled thymidine is added to the culture solution, followed by further culture for a certain period of time. By measuring the amount of the labeled thymidine incorporated into polymeric DNA during the culture, the degree of FGF to activate DNA synthesis is evaluated. (In the present invention as well, this method was adopted when the activity of FGF21 was measured in Examples 4, 5, 6, 8, 9, and 10.)
as §1
The activity of FGF21 to stimulate the DNA synthesis of BaF3 cells that had expressed each FGFR (FGFR1c, R2c, F3c, and R4) as well as betaKlotho was compared with the activity of FGF19, which was evolutionally relative to FGF21. […] The cells were stimulated with FGF21, FGF19, and FGF1 in the presence of heparin, while changing the amounts of FGF21, FGF19, and FGF1, as shown in the figure, and the amount of DNA synthesized was then measured.

betaKlotho = biological target: T1, betaKlotho; experiment: Co-precipitation of FGF21 with soluble betaKlotho protein (anti-V5 beads, immunoblotting); format: binding; conditions: presence or absence of heparin
Experimental: In the present example, the formation of a complex between betaKlotho and an FGF receptor or FGF21 was examined in a biochemical manner. Specifically, a V5 tag and a His tag were added to the C-terminus of the extracellular domain of betaKlotho in a tandem manner to prepare a soluble protein. Thereafter, the soluble betaKlotho protein was incubated with FGF21 in a test tube in the presence or absence of heparin, and betaKlotho was then precipitated using anti-V5 tag antibody-immobilized beads. Whether or not FGF21 bound to betaKlotho and was co-precipitated therewith was analyzed by an immunoblotting method.

[3] = test system: control 3T3-L1 fibroblasts; experiment: GLUT1 mRNA level in control 3T3-L1 fibroblasts (empty vector); format: cell-based; conditions: various concentrations, 6 hours
Experimental: A betaKlotho expression vector or an empty vector used as a control, into which betaKlotho cDNA had not been inserted, were introduced into 3T3-L1 fibroblasts, and FGF21 was then added in various types of concentrations to a culture solution of the 3T3-L1 fibroblasts. The obtained mixture was cultured for 6 hours. Thereafter, RNA was extracted, and the mRNA level of GLUT1 was then measured.

| Molecule | influence of heparin on stimulus transmission activity (thymidine incorporation) [1] | DNA synthesis (thymidine incorporated into the cells) [2] | co-precipitation (binding) with soluble betaKlotho protein (betaKlotho) | mRNA level of GLUT1 [3] |
| --- | --- | --- | --- | --- |
| FGF1: conventional FGF used as a control | sharply increased in the presence of heparin | reacts with all of the receptors | – | – |
| B1 | does not significantly influence | reacts only with FGFR1c and FGFR3c | precipitated in the presence of betaKlotho | not observed |
